Substitutions are numbered along the chain they refer to. Square brackets hold non-standard residues; d marks the D form. Ends that are not written are not given here. pT = C[C@@H](OP(=O)(O)O)[C@H](N)C(=O)O

Experiment [1] deals with Myc-STAG2 p.Ser327Asn (human) (UniProt Q8N3U4). Kind of experiment: co-IP; anti-Myc beads, lysates of HeLa Tet-On cells transfected with Myc-STAG2 WT or mutants; 3 h at 4 °C; washes with lysis buffer containing 200 mM NaCl; blots for endogenous proteins.
For experiment [2], the target named is T1, STAG2(80–930) p.Ser327Asn–SCC1(281–394) complex (human, UniProt Q8N3U4-2 80-930; O60216 281-394, p.Ser327Asn).
T1 construct: STAG2 (SA2), human, residues 80-930, patient germline variant p.Ser327Asn; SCC1 (RAD21), human, residues 281-394, in pGEX-6p1; The methods describe only the WT STAG2(80–930) vector; also called purified STAG2–SCC1 p.Ser327Asn; SA2–SCC1 p.Ser327Asn; source: E. coli, co-expressed, purified (Glutathione Sepharose 4B, PreScission cleavage, ion exchange, size exclusion)
T1 sequence (looked up) 1: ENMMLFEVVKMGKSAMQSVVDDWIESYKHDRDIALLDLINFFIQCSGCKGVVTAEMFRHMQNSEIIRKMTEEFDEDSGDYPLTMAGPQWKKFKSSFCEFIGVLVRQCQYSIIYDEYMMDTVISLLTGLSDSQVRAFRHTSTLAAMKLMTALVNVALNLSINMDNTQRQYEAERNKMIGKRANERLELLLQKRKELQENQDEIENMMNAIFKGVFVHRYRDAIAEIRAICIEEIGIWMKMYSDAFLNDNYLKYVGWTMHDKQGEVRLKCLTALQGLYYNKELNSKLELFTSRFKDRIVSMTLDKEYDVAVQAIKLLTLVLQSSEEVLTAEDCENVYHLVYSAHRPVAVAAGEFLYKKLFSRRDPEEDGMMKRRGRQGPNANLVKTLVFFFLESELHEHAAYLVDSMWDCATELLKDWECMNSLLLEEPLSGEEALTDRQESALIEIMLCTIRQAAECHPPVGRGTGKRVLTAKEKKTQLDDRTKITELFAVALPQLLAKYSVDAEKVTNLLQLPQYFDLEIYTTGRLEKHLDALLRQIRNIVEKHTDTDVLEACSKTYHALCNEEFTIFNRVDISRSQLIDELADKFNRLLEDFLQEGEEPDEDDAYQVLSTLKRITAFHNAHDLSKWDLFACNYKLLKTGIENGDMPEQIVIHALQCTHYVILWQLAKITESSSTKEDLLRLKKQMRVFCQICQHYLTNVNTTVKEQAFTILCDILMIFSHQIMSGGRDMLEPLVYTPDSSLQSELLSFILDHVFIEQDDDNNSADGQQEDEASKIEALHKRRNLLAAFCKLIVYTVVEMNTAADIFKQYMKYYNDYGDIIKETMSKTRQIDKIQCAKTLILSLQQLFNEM
T1 sequence (looked up) 2: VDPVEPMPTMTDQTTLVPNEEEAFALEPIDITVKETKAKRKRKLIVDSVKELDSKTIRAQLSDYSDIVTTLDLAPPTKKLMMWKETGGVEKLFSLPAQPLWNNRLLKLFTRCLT
Nature of the experiment: ITC; MicroCal iTC200, 20 °C; 20 uM STAG2(80–930)–SCC1(281–394) complex in the cell, titrated with 300 uM pSGO1 peptide; 20 mM Tris-HCl pH 7.7, 200 mM NaCl, 5 mM TCEP. Particulars: both partners purified.

Experiment [3] addresses T2, STAG2(80–930)–SCC1(281–394) complex, WT (human, UniProt Q8N3U4-2 80-930; O60216 281-394).
T2 construct: STAG2 (SA2), human, residues 80-930, in pET28a; SCC1 (RAD21), human, residues 281-394, in pGEX-6p1; also called purified STAG2–SCC1 WT; SA2–SCC1 complex; source: E. coli, co-expressed, purified (Glutathione Sepharose 4B, PreScission cleavage, ion exchange, size exclusion)
T2 sequence (looked up) 1: T1 sequence (looked up) 1 with N248S
T2 sequence (looked up) 2: T1 sequence (looked up) 2
The description is as above. Particulars: both partners purified.

Chain of Myc-STAG2 p.Ser327Asn (human) (Q8N3U4 other isoform, or with tags, fused parts or gaps p.S327N): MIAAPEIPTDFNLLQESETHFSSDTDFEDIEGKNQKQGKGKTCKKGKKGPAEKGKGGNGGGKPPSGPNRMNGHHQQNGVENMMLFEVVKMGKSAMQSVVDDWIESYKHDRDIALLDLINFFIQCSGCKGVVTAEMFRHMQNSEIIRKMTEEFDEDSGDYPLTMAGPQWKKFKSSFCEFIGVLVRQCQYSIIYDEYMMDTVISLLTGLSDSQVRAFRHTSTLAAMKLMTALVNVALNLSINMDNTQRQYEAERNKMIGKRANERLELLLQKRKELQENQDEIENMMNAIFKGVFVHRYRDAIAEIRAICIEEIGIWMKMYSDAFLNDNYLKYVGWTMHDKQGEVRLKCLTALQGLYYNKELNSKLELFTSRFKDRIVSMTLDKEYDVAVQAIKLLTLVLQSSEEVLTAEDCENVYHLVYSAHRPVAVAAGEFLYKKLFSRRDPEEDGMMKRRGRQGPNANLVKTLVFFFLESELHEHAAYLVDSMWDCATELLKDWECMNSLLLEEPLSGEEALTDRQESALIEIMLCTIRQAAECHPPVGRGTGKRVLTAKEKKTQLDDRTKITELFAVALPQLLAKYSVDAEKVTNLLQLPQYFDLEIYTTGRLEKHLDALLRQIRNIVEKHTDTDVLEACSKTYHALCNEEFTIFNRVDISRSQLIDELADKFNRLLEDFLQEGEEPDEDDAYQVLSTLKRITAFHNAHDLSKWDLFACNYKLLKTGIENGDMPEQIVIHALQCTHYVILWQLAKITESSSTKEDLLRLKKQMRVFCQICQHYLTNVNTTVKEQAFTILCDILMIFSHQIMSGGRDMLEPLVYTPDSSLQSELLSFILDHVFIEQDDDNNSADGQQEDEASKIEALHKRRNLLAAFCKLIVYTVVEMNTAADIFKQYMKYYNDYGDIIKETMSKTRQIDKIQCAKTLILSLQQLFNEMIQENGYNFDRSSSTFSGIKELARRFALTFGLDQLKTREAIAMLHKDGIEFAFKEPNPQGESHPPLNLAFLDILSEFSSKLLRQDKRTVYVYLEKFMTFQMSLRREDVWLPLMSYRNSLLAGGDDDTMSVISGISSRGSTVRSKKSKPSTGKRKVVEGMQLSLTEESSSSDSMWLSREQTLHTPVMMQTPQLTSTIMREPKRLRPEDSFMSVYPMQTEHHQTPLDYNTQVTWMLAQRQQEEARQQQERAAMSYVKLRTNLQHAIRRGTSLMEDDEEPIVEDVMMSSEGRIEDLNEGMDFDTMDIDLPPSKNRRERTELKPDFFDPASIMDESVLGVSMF

“endogenous SMC1 (from UniProt Q14683 1-1233) (natural protein)” displayed a reduction of binding against WT in experiment [1] of 50%.

B1: synthetic phospho-Thr346 SGO1 peptide containing residues 313–353 of human SGO1 (peptide, UniProt Q5FBB7 313-353, looked up)
peptide: KSENKKTVPQKKMHKSVSSNDAYNFNLEEGVHL[pT]PFRQKVS
notes: SGO1, human, residues 313-353; also called pSGO1; phospho-SGO1 peptide; source: synthetic peptide
As to B1, the dissociation constant (Kd) in experiment [2] was determined as 0.29 µM; in experiment [3] it was 0.23 µM.

The values are drawn from article PMC5677968, “Familial STAG2 germline mutation defines a new human cohesinopathy” (NPJ Genomic Medicine, 2017).
